Assay: label from the status in PepcDB records

Sequence: MRTLLITGPGGSGRTTVAAATALRASRTGTRTLVLSADRTDTLGAALGVPTGGAPVEAAPGLTAWRPDAADRFRADLTAFQDRAATALDFLGAARLDAEELTPLPGAEELALLRALRDAALSEAYDLLVVDLPPAPQALALLALPEELRRYLRRLLPPERQAARALRPVLGRLAGVPMPADWLYETAARWDVELAAVEAVVEDRATTVRLVAEPGPAGADAVRAAATGFALRAVRIDTLIANRLLPEEADDAWSAGLAAQQRKFLEEWRGEYRLHELPHLGHDPRGADDLAALAVPGVNDAPGPVEWSVADRLADDGVLVWHIPLPGAIRDELDLLRRGDELVVTAGQFRRIVPLPSALRRCTVAGAALREGELRIRFAPDPDLWPRERLEHHHHHH
- protein production: not failed

Sequence: MTFPLALIAKNTPANSMIMTKLPSVKVKTEGYNPSVNVNELFAYVDLSGSEPGEHDYEVKVDPIPNIKIVEISPRVVTLQLEHHHHHH
- protein production: not failed

Sequence: MNLESITVVLPTRNEAGNIGAFLASLPQAVHLIVVDASEDETPDIIQRERPARTQVLRRRSTITQARQLGAEAALTDWLLFTDADIVFPDGYFDALERVMDAAVVYGPKLSRDRFAAYYRWFGYGQQCSHWLGIPAATGSNLLVRKDALIAVGGFDPALVCNEDSELVWRIKRAGYRIRFEPSLPVYARDHRRLDSGLWRKTCHSVFRCALLYWDLMPARWRGADWGYWSPQQSGRAPGVSRVELEHHHHHH
- protein production: failed

Sequence: MSLIAIVLVFIMAIVVTVFLSHLLPVKVPLPLIQIAAGAALAASGFQVDFDPHIFLLLFIPPLLFLDGWRIPKDAFFRDMKPILSLAIGLVMVTILGIGLFIHWLIPAITVAAGFALAAILSPTDPVAVSAMTASSPLPSRMAHILEGESLLNDASGLVAFNFAIAAVLTGSFSPGDAVVKFFLMAFGGILSGLVVVWVTGKCNNFLVRRTREEPAIQILISLLIPFAAYLLAEAFHVSGILAAVAAGIAMHYEQLSGPRLPATRMKSSAVWSMLQTTLNGMIFLMLGEQLPRMLRTLPAVASQAGVSSPWYLLLYAVAITLALGLMRFAWVWLSMKLTIFRRKRRGKAITVRPRFSILAVMALAGVKGSVTLAGILTLPVVLADGSPFPGRELLIFLSMAVILMSLVVAAIGLPFMTRYLADDLPHDTGKDDIGAVMTEVAINRLNALLDEPVEDPSEQALRADAGNMLLETYQRRLHYNDNDEGQDVGLELAKRARLEKYMQREVIIAQRQELFRLRRAHNISDITFYEVLREIDLKEESLR
- protein production: failed

Sequence: KGIKKEIHINDKVIYYTHIEKGSSTVCFMFSGSGYNYDKPLFYYATMLMLEHKIDVVHIHYSYDEQVMNKPMEEVTKIMMDDINPVMKEVLKAEQYNDTIFLGKSLGTIPIANDLMKREEFLQSKMILLTPLLTFDTIFDSILHSNHEGFLVMGDKDHQYNADQVDQLHKTNLQIEVVKNANHSVNVGGYETENSIEAIAKIIGKLKEVVRTN
- protein production: failed

Sequence: MLITSSLLPPSGTWIFNINSLFCSLSIKNALSNLPLMRFCNSSTTQHTSTLVISLFIISPENIIFFFRIFYYCDNMEREEFLKYLRQGKYDKLAKLINSYSDILSFLDELFTSNKKDDVRRALLVLKRLDNEVIERYLYYILLNLNEKRIIAKEAEEILKKITNKESVEEAILEIAKKPLDEKIVYLFLQNMKEGNIFFRAILEHTKSKNMEESIKILLKNYNSEMILKILANKLYSSEKDERELTINILLNIVDSLTDEQKNILRGHLSVSLLGDEDKKLYRKFKQLFEKLDIPAELSDEQIKSLLKSHGKTTLNIILRENIKLPANFYNREFLKDFLYTGDEEKQFVGVKLISLKKDSKKKVDLLFRFLNYGYGKAKTAAIRELKKIAQNNNELKKYIENKTLMYAKKMNLGLKISSLRILKEFAKKEHLEFLINEHKRLKELVYKLEEEKFMGGFRHLLMMEEEIRKCNVAMRLIEEIVAEICLKNDIHYNDLKISEKLGYEFYRTMELIGVKNLNLIDIHEFLEDVKRDGELITYLSGIVINNNKIDDNLAKKILEVTEKAEMEDKDVLNANKIMIYASLNRVDKIGEIINMAEGYYSKLAFINGVKKFIDEKLLDEEKINLLIPKIAEMIYSTKKLRLMALEFFKNYPNELVLPILINEIGNYRGEDKLMIDVISNVIFKYPNNIHSIRELLNTDKRNSALKILLKVSEKRPELLEDFIYLLAGMYSSANEEDKKLIKKILKNITTEEQKLILKPIIGDL
- protein production: failed

Sequence: MATTKKKPIHVNVDENLKEEAEQLFDDLGLNMTSAITIFLKQSINEQAIPFMINKGNKETLQALKDIKEGNVHGGFSSVEDLMEDLNALEHHHHHH
- protein production: not failed
